Assay results published in the supplement of paper PMC11246515.
± gives the standard deviation of the averaged measurements.

Assay: total protein half-life in vivo (active degradation + dilution); higher = more stable protein
[1] = E. coli NCM3722 delta-clpP delta-lon delta-hslV, growth: N-lim chemostat, doubling time 6 h
[2] = E. coli NCM3722 delta-clpP, growth: N-lim chemostat, doubling time 6 h
[3] = E. coli NCM3722 delta-hslV, growth: N-lim chemostat, doubling time 6 h
[4] = E. coli NCM3722 delta-lon, growth: N-lim chemostat, doubling time 6 h
[5] = E. coli NCM3722 delta-smpB, growth: N-lim chemostat, doubling time 6 h
[6] = wild type E. coli NCM3722, growth: C-lim chemostat, doubling time 3 h
[7] = wild type E. coli NCM3722, growth: C-lim chemostat, doubling time 6 h
[8] = wild type E. coli NCM3722, growth: C-lim chemostat, doubling time 12 h
[9] = wild type E. coli NCM3722, growth: N-lim chemostat, doubling time 6 h
[10] = wild type E. coli NCM3722, growth: N-lim chemostat, doubling time 12 h
[11] = wild type E. coli NCM3722, growth: P-lim chemostat, doubling time 6 h
[12] = wild type E. coli NCM3722, growth: P-lim chemostat, doubling time 12 h

MQDEYYMARALKLAQRGRFTTHPNPNVGCVIVKDGEIVGEGYHQRAGEPHAEVHALRMAGEKAKGATAYVTLEPCSHHGRTPPCCDALIAAGVARVVASMQDPNPQVAGRGLYRLQQAGIDVSHGLMMSEAEQLNKGFLKRMRTGFPYIQLKLGASLDGRTAMASGESQWITSPQARRDVQLLRAQSHAILTSSATVLADDPALTVRWSELDEQTQALYPQQNLRQPIRIVIDSQNRVTPVHRIVQQPGETWFARTQEDSREWPETVRTLLIPEHKGHLDLVVLMMQLGKQQINSIWVEAGPTLAGALLQAGLVDELIVYIAPKLLGSDARGLCTLPGLEKLADAPQFKFKEIRHVGPDVCLHLVGA
total protein half-life in vivo [1]: 5.45 ± 0.12 h | total protein half-life in vivo [2]: 4.76 ± 0.62 h | total protein half-life in vivo [3]: 5.07 ± 0.25 h | total protein half-life in vivo [4]: 5.1 ± 0.31 h | total protein half-life in vivo [5]: 4.57 ± 0.21 h | total protein half-life in vivo [6]: 2.9 ± 0.13 h | total protein half-life in vivo [7]: 6.76 ± 0.081 h | total protein half-life in vivo [8]: 10.1 ± 0.38 h | total protein half-life in vivo [9]: 4.98 ± 0.35 h | total protein half-life in vivo [10]: 8.77 ± 0.11 h | total protein half-life in vivo [11]: 5.904 ± 0.027 h | total protein half-life in vivo [12]: 11.7 ± 0.15 h

MQDKDFFSWRRTMLLRFQRMETAEEVYHEIELQAQQLEYDYYSLCVRHPVPFTRPKVAFYTNYPEAWVSYYQAKNFLAIDPVLNPENFSQGHLMWNDDLFSEAQPLWEAARAHGLRRGVTQYLMLPNRALGFLSFSRCSAREIPILSDELQLKMQLLVRESLMALMRLNDEIVMTPEMNFSKREKEILRWTAEGKTSAEIAMILSISENTVNFHQKNMQKKINAPNKTQVACYAAATGLI
total protein half-life in vivo [1]: 4.97 ± 0.28 h

MQDLISQVEDLAGIEIDHTTSMVMIFGIIFLTAVVVHIILHWVVLRTFEKRAIASSRLWLQIITQNKLFHRLAFTLQGIIVNIQAVFWLQKGTEAADILTTCAQLWIMMYALLSVFSLLDVILNLAQKFPAASQLPLKGIFQGIKLIGAILVGILMISLLIGQSPAILISGLGAMAAVLMLVFKDPILGLVAGIQLSANDMLKLGDWLEMPKYGADGAVIDIGLTTVKVRNWDNTITTIPTWSLVSDSFKNWSGMSASGGRRIKRSISIDVTSIRFLDEDEMQRLNKAHLLKPYLTSRHQEINEWNRQQGSTESVLNLRRMTNIGTFRAYLNEYLRNHPRIRKDMTLMVRQLAPGDNGLPLEIYAFTNTVVWLEYESIQADIFDHIFAIVEEFGLRLHQSPTGNDIRSLAGAFKQ [P0AAT4]
total protein half-life in vivo [1]: 6.49 ± 0.43 h | total protein half-life in vivo [2]: 6.36 ± 0.28 h | total protein half-life in vivo [3]: 6.274 ± 0.01 h | total protein half-life in vivo [4]: 6.69 ± 1.4 h | total protein half-life in vivo [5]: 6.33 ± 0.022 h | total protein half-life in vivo [6]: 3.52 ± 0.6 h | total protein half-life in vivo [7]: 6.12 ± 0.22 h | total protein half-life in vivo [8]: 13.9 ± 0.19 h | total protein half-life in vivo [9]: 6.22 ± 0.46 h | total protein half-life in vivo [10]: 12 ± 1.6 h | total protein half-life in vivo [11]: 5.84 ± 0.59 h | total protein half-life in vivo [12]: 13.7 ± 1.2 h

MQDRNFDDIAEKFSRNIYGTTKGQLRQAILWQDLDRVLAEMGPQKLRVLDAGGGEGQTAIKMAERGHQVILCDLSAQMIDRAKQAAEAKGVSDNMQFIHCAAQDVASHLETPVDLILFHAVLEWVADPRSVLQTLWSVLRPGGVLSLMFYNAHGLLMHNMVAGNFDYVQAGMPKKKKRTLSPDYPRDPAQVYLWLEEAGWQIMGKTGVRVFHDYLREKHQQRDCYEALLELETRYCRQEPYITLGRYIHVTARKPQSKDKV
total protein half-life in vivo [1]: 4.99 ± 0.24 h | total protein half-life in vivo [2]: 4.498 ± 0.018 h | total protein half-life in vivo [3]: 3.95 ± 0.13 h | total protein half-life in vivo [4]: 4.57 ± 0.49 h | total protein half-life in vivo [5]: 4.304 ± 0.012 h | total protein half-life in vivo [6]: 2.96 ± 0.23 h | total protein half-life in vivo [7]: 5.46 ± 0.57 h | total protein half-life in vivo [8]: 10.2 ± 0.95 h | total protein half-life in vivo [9]: 4.21 ± 0.36 h | total protein half-life in vivo [10]: 7.11 ± 0.55 h | total protein half-life in vivo [11]: 5.32 ± 0.21 h | total protein half-life in vivo [12]: 11 ± 0.42 h

MQDSILTTVVKDIDGEVTTLEKFAGNVLLIVNVASKCGLTPQYEQLENIQKAWVDRGFMVLGFPCNQFLEQEPGSDEEIKTYCTTTWGVTFPMFSKIEVNGEGRHPLYQKLIAAAPTAVAPEESGFYARMVSKGRAPLYPDDILWNFEKFLVGRDGKVIQRFSPDMTPEDPIVMESIKLALAK
total protein half-life in vivo [1]: 5.18 ± 1.1 h | total protein half-life in vivo [2]: 4.68 ± 0.55 h | total protein half-life in vivo [3]: 4.23 ± 0.055 h | total protein half-life in vivo [4]: 4.73 ± 0.43 h | total protein half-life in vivo [5]: 4.24 ± 0.047 h | total protein half-life in vivo [6]: 2.82 ± 0.28 h | total protein half-life in vivo [7]: 4.93 ± 0.1 h | total protein half-life in vivo [8]: 7.87 ± 4.7 h | total protein half-life in vivo [9]: 3.99 ± 0.07 h | total protein half-life in vivo [10]: 6.05 ± 0.29 h | total protein half-life in vivo [11]: 4.87 ± 0.1 h | total protein half-life in vivo [12]: 11.1 ± 0.68 h

MQEGQNRKTSSLSILAIAGVEPYQEKPGEEYMNEAQLAHFRRILEAWRNQLRDEVDRTVTHMQDEAANFPDPVDRAAQEEEFSLELRNRDRERKLIKKIEKTLKKVEDEDFGYCESCGVEIGIRRLEARPTADLCIDCKTLAEIREKQMAG [P0ABS1]
total protein half-life in vivo [1]: 6.12 ± 0.34 h | total protein half-life in vivo [2]: 6.26 ± 1.2 h | total protein half-life in vivo [3]: 3.53 ± 0.55 h | total protein half-life in vivo [4]: 3.95 ± 0.44 h | total protein half-life in vivo [5]: 3.12 ± 0.035 h | total protein half-life in vivo [6]: 1.68 ± 0.14 h | total protein half-life in vivo [7]: 3.27 ± 0.28 h | total protein half-life in vivo [8]: 5.07 ± 0.47 h | total protein half-life in vivo [9]: 3.65 ± 0.58 h | total protein half-life in vivo [10]: 7.03 ± 0.073 h | total protein half-life in vivo [11]: 3.71 ± 0.66 h | total protein half-life in vivo [12]: 9.06 ± 0.61 h

MQENSPLLQLQNVGYLAGDAKILNNINFSLRAGEFKLITGPSGCGKSTLLKIVASLISPTSGTLLFEGEDVSTLKPEIYRQQVSYCAQTPTLFGDTVYDNLIFPWQIRNRQPDPAIFLDFLERFALPDSILTKNIAELSGGEKQRISLIRNLQFMPKVLLLDEITSALDESNKHNVNEMIHRYVREQNIAVLWVTHDKDEINHADKVITLQPHAGEMQEARYELA
total protein half-life in vivo [1]: 5.05 ± 0.21 h | total protein half-life in vivo [2]: 5 ± 0.8 h | total protein half-life in vivo [3]: 5.16 ± 0.41 h | total protein half-life in vivo [4]: 4.59 ± 0.41 h | total protein half-life in vivo [5]: 6.21 ± 1.8 h | total protein half-life in vivo [6]: 2.7 ± 0.38 h | total protein half-life in vivo [7]: 6.58 ± 0.68 h | total protein half-life in vivo [8]: 9.76 h | total protein half-life in vivo [9]: 5.2 ± 0.14 h | total protein half-life in vivo [10]: 9.23 ± 0.8 h | total protein half-life in vivo [11]: 5.43 ± 0.2 h | total protein half-life in vivo [12]: 11.7 ± 1.6 h

MQENYKILVVDDDMRLRALLERYLTEQGFQVRSVANAEQMDRLLTRESFHLMVLDLMLPGEDGLSICRRLRSQSNPMPIIMVTAKGEEVDRIVGLEIGADDYIPKPFNPRELLARIRAVLRRQANELPGAPSQEEAVIAFGKFKLNLGTREMFREDEPMPLTSGEFAVLKALVSHPREPLSRDKLMNLARGREYSAMERSIDVQISRLRRMVEEDPAHPRYIQTVWGLGYVFVPDGSKA [P0AA16]
total protein half-life in vivo [1]: 5.29 ± 0.46 h | total protein half-life in vivo [2]: 6.03 ± 1.6 h | total protein half-life in vivo [3]: 5.25 ± 0.31 h | total protein half-life in vivo [4]: 6.35 ± 0.91 h | total protein half-life in vivo [5]: 4.73 ± 0.46 h | total protein half-life in vivo [6]: 3.32 ± 0.41 h | total protein half-life in vivo [7]: 5.849 ± 0.017 h | total protein half-life in vivo [8]: 10.3 ± 0.2 h | total protein half-life in vivo [9]: 4.67 ± 0.22 h | total protein half-life in vivo [10]: 8.55 ± 0.08 h | total protein half-life in vivo [11]: 5.66 ± 0.17 h | total protein half-life in vivo [12]: 11 ± 0.14 h
